This is an account of results in article PMC9680708.

Common to all, as to assay: other fluorescence titration
Assay [1] addresses FlAsH-labeled wild-type collybistin (CB) FRET sensor F1DA (rat).
The target in assay [2] is FlAsH-labeled collybistin FRET sensor F28DA (rat).
In assay [3] the target is FlAsH-labeled collybistin FRET sensor F73DA (rat).
Assay [4] has as its target FlAsH-labeled collybistin FRET sensor F99DA (rat).
The target of assay [5] is FlAsH-labeled double-mutant (W24A/E262A) open-state collybistin FRET sensor F1dmDA (rat).
Assay [6] concerns the target FlAsH-labeled single-mutant (E262A) open-state collybistin FRET sensor F1smDA (rat).

In general, Kd refers to the free concentration of one partner at which half of the binding sites on the other are occupied at equilibrium, for simple one-to-one binding. The low end stands for higher affinity, the high end for lower affinity.

As for “free SH3 domain of collybistin (domain or fragment)”, in assay [1], the Kd amounted to 373 µM and the species-weighted average fluorescence lifetime of CFP in the sensor with ligand stood at 1.44 ns.

With “full-length gephyrin (GephFL) (from UniProt Q03555 1-768) (natural protein)”, the species-weighted average fluorescence lifetime of CFP in the sensor with ligand in assay [2] worked out at 1.4 ns; in assay [3], 1.03 ns; in assay [4], 1.2 ns; in assay [5] it was 0.64 ns; in assay [6], 0.62 ns; in assay [1], 1.56 ns. Further, the Kd in assay [5] worked out at 43 µM; in assay [6], 47 µM; in assay [1], 4.5 µM.

In assay [1], “gephyrin linker followed by the E domain (GephLE) (domain or fragment)” registered an equilibrium dissociation constant (Kd) of 6.4 µM and a species-weighted average fluorescence lifetime of CFP in the sensor with ligand of 1.54 ns.

For “intracellular cytosolic domain of neuroligin 2 (NL2icd) (from UniProt Q62888 700-836) (domain or fragment)”, in assay [1], the species-weighted average fluorescence lifetime of CFP in the sensor with ligand stood at 1.37 ns.

In assay [1], “isolated gephyrin E domain (GephE) (domain or fragment)” displayed a Kd of 6.3 µM and a species-weighted average fluorescence lifetime of CFP in the sensor with ligand of 1.36 ns.
